Biological target: the molecule itself
Test: cross-linking + AUC; PF4 cross-linked with 1 mg/mL EDC (equal v:v) in 15 mM MES pH 8.0, 6 h, ambient temperature, stopped with 1 M Tris pH 7.4; oligomeric species analysed by SDS-PAGE and ultracentrifugation

B1: cross-linked platelet factor 4 (natural protein, human, UniProt P02776 32-101, looked up)
chain: EAEEDGDLQCLCVKTTSQVRPRHITSLEVIKAGPHCPTAQLIATLKNGRKICLDLQAPLYKKIIKKLLES
modifications: chemically cross-linked with 1-ethyl-3-(3-dimethylaminopropyl) carbodiimide (EDC); cross-linked residues not stated
notes: Platelet factor 4 (PF4, CXCL4), human, recombinant; The bought recombinant protein is probably the mature 70-residue chemokine (surmised); also called c-PF4; cross-linked PF4; source: bought: Protein Foundry LLC (recombinant PF4, Human CXCL4); cross-linked with EDC
B1 was tested, and the “stoichiometry N” value was 4.

Reference: publication PMC12948190, “Microfluidic Electrochemical Biosensor for the Detection of Platelet Factor 4 Antibody‐Mediated Thrombotic Disorders” (Advanced Science, 2025)
